{
  "source": "paper doi:10.1101/2023.07.10.548322",
  "binders": {"B1": {"name": "G4tr biotin (structured_RNA)", "RNA": "UUAGGGUUAGGGUUAGGGUUAGGG"}, "B2": {"name": "G4mt biotin (ssRNA)", "RNA": "UUACCGUUACCGUUACCGUUACCG"}},
  "test_in_all_cases": "SPR",
  "key": {"aSyn dCterm": {"biological_target": "aSyn dCterm (UniProt P37840 1-95, del96-140)"}, "aSyn dNAC": {"biological_target": "aSyn dNAC (UniProt P37840 1-140, del61-95)"}, "[1]": {"biological_target": "alpha-synuclein (aSyn) WT (human, UniProt P37840 1-140)"}},
  "data": [
    {"binder": "B1", "values": [
      {"measurement": "binding result", "setting": "aSyn dCterm", "result": "binds"},
      {"measurement": "binding result", "setting": "aSyn dNAC", "result": "binds"},
      {"measurement": "Kd", "setting": "[1]", "result": "3.63 ± 0.63", "unit": "µM"}
    ]},
    {"binder": "B2", "values": [
      {"measurement": "binding result", "setting": "[1]", "result": "no binding"}
    ]}
  ]
}
